The values below come from patent US20250326865A1, “C-MET PROTEIN-BINDING PEPTIDE COMPLEX” (PeptiDream Inc., priority 2021, published 2025).

Starred links: 1 amine or outer side, 2 acyl side, 3 side chain; linkers in the order of their positions; H or OH if unused. Positions of bridges follow the written chain, without caps; N, C: chain ends. Non-standard residues stand in square brackets, D forms with d. Residues, ends and D or L forms follow the SMILES beside them. Primed or numbered codes have the meaning given here. Chains are numbered I, II in the order given. No end group written: not given here. CO(CH2)2(OCH2CH2)17CO = O=C(CCOCCOCCOCCOCCOCCOCCOCCOCCOCCOCCOCCOCCOCCOCCOCCOCCOCCC(=O)[*:2])[*:1]; CO(CH2CH2O)9CH2CH2CO = O=C(CCOCCOCCOCCOCCOCCOCCOCCOCCOCCC(=O)[*:2])[*:1]; PEG12 = NCCOCCOCCOCCOCCOCCOCCOCCOCCOCCOCCOCCOCCC(=O)O; NMeF = CN[C@@H](Cc1ccccc1)C(=O)O; Ahp(2) = CCCCC[C@H](N)C(=O)O; NMeC = CN[C@@H](CS)C(=O)O; Ahp′ = not defined here; Abu = CC[C@H](N)C(=O)O

The target in one experiment is T1, c-Met (Homo sapiens, UniProt P08581).
T1 construct: endogenous in cells; host or cells: A431 (human)
The experiment is described as follows: Phospho-c-Met AlphaLISA assay (c-Met agonist activity) in A431 cells. The class given is cell-based. To be noted: 15 minutes of stimulation; for C-Met Agonist Activity (2 or 1): c-Met phosphorylation (Tyr1234/1235) in A431 cells, maximum signal induced by HGF = 100%. The method, then: To evaluate the activation potency (c-Met agonist activity) of c-Met of the peptide complex of the present invention, the phosphorylation of c-Met was verified. Human A431 cells were cultured in DMEM high glucose, GlutaMAX (registered trademark) Supplement, pyruvate (Thermo Fisher Scientific), containing 10% FBS (Gibco). After cells were detached using Accutase (Innovative cell technologies), they were seeded into a 96-well plate at 10000 cells per well and cultured overnight. The next day, for starvation, the culture medium was changed to DMEM high glucose, GlutaMAX (registered trademark) Supplement, pyruvate (Thermo Fisher Scientific), containing 0.1% BSA (Sigma-Aldrich), and the cells were cultured overnight. Then, the peptide complex synthesized in Example 3 or Recombinant Human HGF Protein (R&D systems) as a control was added, and after 15 minutes of stimulation, cells were lysed in a Lysis Buffer provided in the AlphaLISA (registered trademark) SureFire (registered trademark) Ultra™ Phospho-c-Met (Tyr1234/1235) kit (PerkinElmer). The assay was performed according to the kit protocol, and a SpectraMax (registered trademark) Paradigm (registered trademark) multimode microplate reader (Molecular Devices, LLC.) was used for signal detection. […] In the same manner, the C50 value was calculated by GraphPad Prism as the concentration of peptide showing 50% activity of the signal induced by HGF. […] Further, for a complex (GFs_c-Met-00014336-PEG13 dimer; complex no. 49 in Table 4) of a peptide (SEQ ID NO: 34) and a linker (SEQ ID NO: 37), a graph of c-Met agonist activity is shown in FIG. 1.

Another experiment deals with human c-Met protein (human, UniProt P08581 25-1390). The experiment is described as follows: cell-based or functional assay.
Sequence of human c-Met protein (P08581 25-1390): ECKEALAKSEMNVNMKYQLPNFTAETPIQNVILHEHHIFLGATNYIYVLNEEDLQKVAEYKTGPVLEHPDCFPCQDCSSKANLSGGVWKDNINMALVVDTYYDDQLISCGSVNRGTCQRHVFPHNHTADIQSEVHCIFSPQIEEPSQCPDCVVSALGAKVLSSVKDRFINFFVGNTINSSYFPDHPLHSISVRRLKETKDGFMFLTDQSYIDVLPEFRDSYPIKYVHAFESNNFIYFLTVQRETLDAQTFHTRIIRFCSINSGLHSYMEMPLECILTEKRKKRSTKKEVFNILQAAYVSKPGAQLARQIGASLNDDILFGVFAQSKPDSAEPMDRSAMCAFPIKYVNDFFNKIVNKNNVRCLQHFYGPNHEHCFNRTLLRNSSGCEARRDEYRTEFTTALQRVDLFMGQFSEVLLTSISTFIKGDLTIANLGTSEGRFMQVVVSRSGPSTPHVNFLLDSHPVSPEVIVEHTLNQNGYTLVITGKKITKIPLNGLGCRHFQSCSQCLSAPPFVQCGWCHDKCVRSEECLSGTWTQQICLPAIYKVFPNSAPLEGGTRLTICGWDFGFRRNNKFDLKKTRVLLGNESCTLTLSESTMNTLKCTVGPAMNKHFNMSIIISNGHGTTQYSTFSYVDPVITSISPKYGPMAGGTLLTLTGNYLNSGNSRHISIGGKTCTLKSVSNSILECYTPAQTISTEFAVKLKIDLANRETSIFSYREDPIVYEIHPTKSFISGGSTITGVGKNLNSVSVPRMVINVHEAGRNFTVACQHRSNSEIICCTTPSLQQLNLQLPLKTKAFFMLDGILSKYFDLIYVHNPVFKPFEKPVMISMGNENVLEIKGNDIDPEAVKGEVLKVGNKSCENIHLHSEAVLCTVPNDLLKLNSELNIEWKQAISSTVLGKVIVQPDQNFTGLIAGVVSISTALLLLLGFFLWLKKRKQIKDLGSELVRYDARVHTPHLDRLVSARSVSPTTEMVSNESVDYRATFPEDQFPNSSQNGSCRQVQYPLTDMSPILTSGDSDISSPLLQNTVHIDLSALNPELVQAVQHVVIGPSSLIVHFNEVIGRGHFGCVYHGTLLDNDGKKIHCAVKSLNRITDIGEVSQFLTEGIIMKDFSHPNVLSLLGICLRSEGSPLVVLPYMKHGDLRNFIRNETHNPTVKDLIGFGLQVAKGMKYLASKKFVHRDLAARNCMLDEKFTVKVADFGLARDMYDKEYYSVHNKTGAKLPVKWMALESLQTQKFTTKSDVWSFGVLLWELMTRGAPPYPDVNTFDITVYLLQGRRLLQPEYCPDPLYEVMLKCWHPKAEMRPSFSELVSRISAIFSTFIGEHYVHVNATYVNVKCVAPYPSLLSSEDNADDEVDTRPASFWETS

T1 sequence (P08581 25-1390): as above

For `CCCCC[C@@H]1NC(=O)[C@H](CC(=O)O)NC(=O)[C@H](CC(=O)O)NC(=O)[C@H](CC(=O)O)NC(=O)[C@H](Cc2ccccc2)N(C)C(=O)[C@H](CO)NC(=O)[C@H](C(C)C)NC(=O)[C@H](Cc2ccc(O)cc2)NC(=O)[C@H](C(C)C)NC(=O)[C@H](Cc2ccccc2)N(C)C(=O)CSC[C@@H](C(=O)NCCOCCOCCOCCOCCOCCOCCOCCOCCOCCOCCOCCOCCC(=O)NCCCC[C@H](NC(=O)CCOCCOCCOCCOCCOCCOCCOCCOCCOCCOCCOCCOCCNC(=O)[C@@H]2CSCC(=O)N(C)[C@@H](Cc3ccccc3)C(=O)N[C@@H](C(C)C)C(=O)N[C@@H](Cc3ccc(O)cc3)C(=O)N[C@@H](C(C)C)C(=O)N[C@@H](CO)C(=O)N(C)[C@@H](Cc3ccccc3)C(=O)N[C@@H](CC(=O)O)C(=O)N[C@@H](CC(=O)O)C(=O)N[C@@H](CC(=O)O)C(=O)N[C@@H](CCCCC)C(=O)N3CCC[C@H]3C(=O)N[C@@H](CCCNC(=N)N)C(=O)N[C@@H](Cc3c[nH]c4ccccc34)C(=O)N[C@@H](C)C(=O)N2C)C(N)=O)N(C)C(=O)[C@H](C)NC(=O)[C@H](Cc2c[nH]c3ccccc23)NC(=O)[C@H](CCCNC(=N)N)NC(=O)[C@@H]2CCCN2C1=O` [Peptide 22] (I: {CH2CO}-[NMeF]VYVS[NMeF]DDD[Ahp(2)]PRWA[NMeC][PEG12]K-NH2 / II: {CH2CO}-[NMeF]VYVS[NMeF]DDD[Ahp(2)]PRWA[NMeC][PEG12]; amide I:17-II:C; thioether I:N-I:15, II:N-II:15), at c-Met (concentration of peptide showing 50% activity of the signal induced by HGF, A431 cells, read-out: C-Met Agonist Activity (C50; nM)), the EC50 turned out to be 2.37 nM.

As to “15 ({CH2CO}-[NMeF]VYVS[NMeF]DDD[Ahp′]PRWV[NMeC]; thioether N-15 (inferred); not fully specified; reading uncertain; also: conjugated moiety via linker) [Peptide 15]”, in the experiment with c-Met, the “C-Met Agonist Activity (2 or 1)” value is recorded as 2 (those showing more than 50% activation were described as 2).

With “11 ({CH2CO}-[NMeF]VYVS[NMeF]DDD[Ahp′]PRW[Abu][NMeC]; thioether N-15 (inferred); not fully specified; reading uncertain; also: conjugated moiety via linker) [Peptide 11]”, the “C-Met Agonist Activity (2 or 1)” value with c-Met is listed as 2 (those showing more than 50% activation were described as 2).

Take “4 (AVYVS[NMeF]DDD[Ahp′]PRWS[NMeC]; not fully specified (N-terminus, bridges); reading uncertain; also: conjugated moiety via linker) [Peptide 4]”: in the experiment with c-Met, the “C-Met Agonist Activity (2 or 1)” value is listed as 1 (those showing less than 50% activation as 1).

B1: Peptide complex No. 44 in Table 4 (peptide SEQ ID NO: 31, Gfs_c-Met-00014294p; linker SEQ ID NO: 36) (peptide)
peptide: {CH2CO}-[NMeF]TAVS[NMeF]DSD[Ahp(2)]PRWA[NMeC]
chain: GK[CO(CH2CH2O)9CH2CH2CO]KG
modifications: thioether I:N-I:15 (inferred); also: homodimer of two cyclic peptides joined by linker G-K-cPEG9c-K-G, peptide C-terminus on linker
For B1, the “C-Met Agonist Activity (C50; nM): phospho-c-Met AlphaLISA, A431 cells” value (“C-Met Agonist Activity (C50; nM)” below) with human c-Met protein was found to be 0.33 nM.

B2: GFs_c-Met-00014305-PEG17 dimer (peptide SEQ ID NO: 34, GFs_c-Met-00014336p; linker SEQ ID NO: 38) (peptide)
peptide: {CH2CO}-[NMeF]TAVS[NMeF]DED[Ahp(2)]PRWS[NMeC]
chain: GK[CO(CH2)2(OCH2CH2)17CO]KG
modifications: thioether I:N-I:15 (inferred); also: homodimer: two cyclic peptides joined by linker G-K-cPEG17c-K-G, peptide C-terminus on linker
Regarding B2, in the experiment with human c-Met protein, the “C-Met Agonist Activity (C50; nM)” value is 0.27 nM.

B3: Peptide complex No. 43 in Table 4 (peptide SEQ ID NO: 31, Gfs_c-Met-00014294p; linker SEQ ID NO: 38) (peptide)
peptide: {CH2CO}-[NMeF]TAVS[NMeF]DSD[Ahp(2)]PRWA[NMeC]
chain: GK[CO(CH2)2(OCH2CH2)17CO]KG
modifications: thioether I:N-I:15 (inferred); also: homodimer of two cyclic peptides joined by linker G-K-cPEG17c-K-G, peptide C-terminus on linker
In the case of B3, in the experiment with human c-Met protein, the “C-Met Agonist Activity (C50; nM)” value was 0.45 nM.

B4: GFs_c-Met-00014318-PEG9 dimer (peptide SEQ ID NO: 34, GFs_c-Met-00014336p; linker SEQ ID NO: 36) (peptide)
peptide: {CH2CO}-[NMeF]TAVS[NMeF]DED[Ahp(2)]PRWS[NMeC]
chain: GK[CO(CH2CH2O)9CH2CH2CO]KG
modifications: thioether I:N-I:15 (inferred); also: homodimer: two cyclic peptides joined by linker G-K-cPEG9c-K-G, peptide C-terminus on linker
In the case of B4, in the experiment with human c-Met protein, the “C-Met Agonist Activity (C50; nM)” value stood at 0.24 nM.

B5: Peptide complex No. 46 in Table 4 (peptide SEQ ID NO: 32, GFs_c-Met-00014297p; linker SEQ ID NO: 36) (peptide)
peptide: {CH2CO}-[NMeF]TAVS[NMeF]DPD[Ahp(2)]PRWA[NMeC]
chain: GK[CO(CH2CH2O)9CH2CH2CO]KG
modifications: thioether I:N-I:15 (inferred); also: homodimer of two cyclic peptides joined by linker G-K-cPEG9c-K-G, peptide C-terminus on linker
As for B5, the “C-Met Agonist Activity (C50; nM)” value in the experiment with human c-Met protein turned out to be 0.67 nM.

B6: Peptide complex No. 47 in Table 4 (peptide SEQ ID NO: 33, GFs_c-Met-00014300p; linker SEQ ID NO: 38) (peptide)
peptide: {CH2CO}-[NMeF]TAVS[NMeF]DPD[Ahp(2)]PRWS[NMeC]
chain: GK[CO(CH2)2(OCH2CH2)17CO]KG
modifications: thioether I:N-I:15 (inferred); also: homodimer of two cyclic peptides joined by linker G-K-cPEG17c-K-G, peptide C-terminus on linker
In the case of B6, in the experiment with human c-Met protein, the “C-Met Agonist Activity (C50; nM)” value is 0.5 nM.

B7: Peptide complex No. 40 in Table 4 (peptide SEQ ID NO: 29, GFs_c-Met-00014306p; linker SEQ ID NO: 36) (peptide)
peptide: {CH2CO}-[NMeF]TAVSLDSD[Ahp(2)]PRWS[NMeC]
chain: GK[CO(CH2CH2O)9CH2CH2CO]KG
modifications: thioether I:N-I:15 (inferred); also: homodimer of two cyclic peptides joined by linker G-K-cPEG9c-K-G, peptide C-terminus on linker
As to B7, in the experiment with human c-Met protein, the “C-Met Agonist Activity (C50; nM)” value came out at 2.13 nM.

B8: Peptide complex No. 39 in Table 4 (peptide SEQ ID NO: 29, GFs_c-Met-00014306p; linker SEQ ID NO: 38) (peptide)
peptide: {CH2CO}-[NMeF]TAVSLDSD[Ahp(2)]PRWS[NMeC]
chain: GK[CO(CH2)2(OCH2CH2)17CO]KG
modifications: thioether I:N-I:15 (inferred); also: homodimer of two cyclic peptides joined by linker G-K-cPEG17c-K-G, peptide C-terminus on linker
Take B8: the “C-Met Agonist Activity (C50; nM)” value in the experiment with human c-Met protein was 1.44 nM.

B9: Peptide complex No. 42 in Table 4 (peptide SEQ ID NO: 30, GFs_c-Met-00014304p; linker SEQ ID NO: 36) (peptide)
peptide: {CH2CO}-[NMeF]TAVS[NMeF]DSDRPRWS[NMeC]
chain: GK[CO(CH2CH2O)9CH2CH2CO]KG
modifications: thioether I:N-I:15 (inferred); also: homodimer of two cyclic peptides joined by linker G-K-cPEG9c-K-G, peptide C-terminus on linker
Turning to B9, the “C-Met Agonist Activity (C50; nM)” value with human c-Met protein was 0.33 nM.

B10: Peptide complex No. 41 in Table 4 (peptide SEQ ID NO: 30, GFs_c-Met-00014304p; linker SEQ ID NO: 38) (peptide)
peptide: {CH2CO}-[NMeF]TAVS[NMeF]DSDRPRWS[NMeC]
chain: GK[CO(CH2)2(OCH2CH2)17CO]KG
modifications: thioether I:N-I:15 (inferred); also: homodimer of two cyclic peptides joined by linker G-K-cPEG17c-K-G, peptide C-terminus on linker
As for B10, the “C-Met Agonist Activity (C50; nM)” value in the experiment with human c-Met protein is 0.32 nM.

B11: Peptide complex No. 48 in Table 4 (peptide SEQ ID NO: 33, GFs_c-Met-00014300p; linker SEQ ID NO: 36) (peptide)
peptide: {CH2CO}-[NMeF]TAVS[NMeF]DPD[Ahp(2)]PRWS[NMeC]
chain: GK[CO(CH2CH2O)9CH2CH2CO]KG
modifications: thioether I:N-I:15 (inferred); also: homodimer of two cyclic peptides joined by linker, peptide C-terminus on linker
As to B11, in the experiment with human c-Met protein, the “C-Met Agonist Activity (C50; nM)” value is 0.35 nM.

B12: Peptide complex No. 45 in Table 4 (peptide SEQ ID NO: 32, GFs_c-Met-00014297p; linker SEQ ID NO: 38) (peptide)
peptide: {CH2CO}-[NMeF]TAVS[NMeF]DPD[Ahp(2)]PRWA[NMeC]
chain: GK[CO(CH2)2(OCH2CH2)17CO]KG
modifications: thioether I:N-I:15 (inferred); also: homodimer of two cyclic peptides joined by linker G-K-cPEG17c-K-G, peptide C-terminus on linker
Consider B12, for which the “C-Met Agonist Activity (C50; nM)” value in the experiment with human c-Met protein is 0.71 nM.
